In US20110311550A1 (Scripps Research, published 2011):

Experiments:
Assay in all cases: ELISA, lectin-captured E1E2 lysate, Ab 1 ug/ml;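 further: E1E2 captured on Galanthus nivalis lectin-coated plates, bound antibody read out via HRP-linked secondary antibody with TMB colorimetric substrate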
[1] = target: E1E2 complex (H77) with E2 mutation R630A (HCV genotype 1a, isolate H77, UniProt P27958 192-383; P27958 384-746)
[2] = target: E1E2 complex (H77) with E2 mutation L441A (HCV genotype 1a, isolate H77, UniProt P27958 192-383; P27958 384-746)
[3] = target: E1E2 complex (H77) with E2 mutation P619A (HCV genotype 1a, isolate H77, UniProt P27958 192-383; P27958 384-746)
[4] = target: E1E2 complex (H77) with E2 mutation H617A (HCV genotype 1a, isolate H77, UniProt P27958 192-383; P27958 384-746)
[5] = target: E1E2 complex (H77) with E2 mutation T621A (HCV genotype 1a, isolate H77, UniProt P27958 192-383; P27958 384-746)
[6] = target: E1E2 complex (H77) with E2 mutation T425A (HCV genotype 1a, isolate H77, UniProt P27958 192-383; P27958 384-746)
[7] = target: E1E2 complex (H77) with E2 mutation N448A (HCV genotype 1a, isolate H77, UniProt P27958 192-383; P27958 384-746)
[8] = target: E1E2 complex (H77) with E2 mutation L427A (HCV genotype 1a, isolate H77, UniProt P27958 192-383; P27958 384-746)
[9] = target: E1E2 complex (H77) with E2 mutation A642G (HCV genotype 1a, isolate H77, UniProt P27958 192-383; P27958 384-746)
[10] = target: E1E2 complex (H77) with E2 mutation A643G (HCV genotype 1a, isolate H77, UniProt P27958 192-383; P27958 384-746)
[11] = target: E1E2 complex (H77) with E2 mutation Y618A (HCV genotype 1a, isolate H77, UniProt P27958 192-383; P27958 384-746)
[12] = target: E1E2 complex (H77) with E2 mutation G635A (HCV genotype 1a, isolate H77, UniProt P27958 192-383; P27958 384-746)
[13] = target: E1E2 complex (H77) with E2 mutation G634A (HCV genotype 1a, isolate H77, UniProt P27958 192-383; P27958 384-746)
[14] = target: E1E2 complex (H77) with E2 mutation H638A (HCV genotype 1a, isolate H77, UniProt P27958 192-383; P27958 384-746)
[15] = target: E1E2 complex (H77) with E2 mutation Y624A (HCV genotype 1a, isolate H77, UniProt P27958 192-383; P27958 384-746)
[16] = target: E1E2 complex (H77) with E2 mutation R614A (HCV genotype 1a, isolate H77, UniProt P27958 192-383; P27958 384-746)
[17] = target: E1E2 complex (H77) with E2 mutation A439G (HCV genotype 1a, isolate H77, UniProt P27958 192-383; P27958 384-746)
[18] = target: E1E2 complex (H77) with E2 mutation Y443A (HCV genotype 1a, isolate H77, UniProt P27958 192-383; P27958 384-746)
[19] = target: E1E2 complex (H77) with E2 mutation T435A (HCV genotype 1a, isolate H77, UniProt P27958 192-383; P27958 384-746)
[20] = target: E1E2 complex (H77) with E2 mutation G436A (HCV genotype 1a, isolate H77, UniProt P27958 192-383; P27958 384-746)
[21] = target: E1E2 complex (H77) with E2 mutation N623A (HCV genotype 1a, isolate H77, UniProt P27958 192-383; P27958 384-746)
[22] = target: E1E2 complex (H77) with E2 mutation F447A (HCV genotype 1a, isolate H77, UniProt P27958 192-383; P27958 384-746)

B1: N4 IgG (antibody, V domains shown)
VH: VQLLEQSGPEVKKPGDSLRISCKMSGDSLVTTWIGWVRQKPGQGLEWMGIINPGDSSTNIYPGDSATRYGPSFQGQVTISIDKSTSTAYLQWNNVKASDTGIYYCARHVPVPISGTFLWREREMHDFGYFDDWGQGTLVIVSS
VL: ELTLTQSPGTLSLSPGERATLSCRASQSVSNNYLAWYQQKPGQAPRLLIYGASSRATGIPDRFSGSGSGTGFTLIISRLEPEDFAVYYCQQYGSSSITFGQGTRLEIKR
notes: also called IgG N4
In the case of B1, the “Binding relative to wt (%)” value [1] is reported as 115%, the “Binding relative to wt (%)” value [2] is reported as 18% and the “Binding relative to wt (%)” value [3] is reported as 41%. For the same binder, the “Binding relative to wt (%)” value [4] was 21%, the “Binding relative to wt (%)” value [5] was 34% and the “Binding relative to wt (%)” value [6] was 100%. The “Binding relative to wt (%)” value [7] was 48%, the “Binding relative to wt (%)” value [8] was 125% and the “Binding relative to wt (%)” value [9] was 65%. For the same binder, the “Binding relative to wt (%)” value [10] was 34%, the “Binding relative to wt (%)” value [11] was 33% and the “Binding relative to wt (%)” value [12] was 80%. The “Binding relative to wt (%)” value [13] was 117%, the “Binding relative to wt (%)” value [14] was 12% and the “Binding relative to wt (%)” value [15] was 59%. For the same binder, the “Binding relative to wt (%)” value [16] was 16%, the “Binding relative to wt (%)” value [17] was 12% and the “Binding relative to wt (%)” value [18] was 5%. The “Binding relative to wt (%)” value [19] was 122%, the “Binding relative to wt (%)” value [20] was 107% and the “Binding relative to wt (%)” value [21] was 54%. The “Binding relative to wt (%)” value [22] was 28%.
